Here are results for two molecules from patent publication US9624471B2, “Methods for maturing cardiomyocytes and uses thereof” (UNIVERSITY OF WASHINGTON THROUGH ITS CENTER FOR …, priority 2013, dated 2017).

Series [1] relates to let-7 OE CMs. Briefly: Mitochondrial DNA copy number by qPCR (mtCol normalized to GAPDH). In kind it is cell-based, human. Conditions: let-7 OE vs. EV control. From the text:
FIGS. 5A-5G Let-7 over expression results in down-regulation of PI3/AKT/Insulin pathway and up-regulation of FA metabolism. Comparisons were done between let-7OE and EV control for all assays (FIG. 5A) Density plots using R generated with fold change expression (let-7g OE/EV) of genes for FA metabolism and PI3/AKT/Insulin signaling. (FIG. 5B) qPCR analysis of candidate let-7 targets of the insulin pathway and genes from the FA metabolism. (FIG. 5C) Representative OCR profile in response to ATP synthase inhibitor oligomycin, uncoupler of electron transport and oxidative phosphorylation, FCCP and electron transport chain blockers rotenone and antimycin during mito-stress assay. (FIG. 5D) Quantification of maximal respiration capacity, i.e., changes in response to FCCP treatment after inhibition of ATP synthase by oligomycin. n=24 from 3 biological replicates. (FIG. 5E) mitochondrial DNA copy number was determined by measuring the ratio of MtDNA to genomic DNA using primers specific for mitochondrial DNA gene, Col (mtCol) and normalizing to chromosomal gene GAPDH. (FIG. 5F) Representative OCR trace of let-7g OE cardiomyocytes for fatty acid stress measuring Etomixir (ETO) responsive OCR changes after palmitate addition. (FIG. 5G) Quantification of changes in OCR in response to ETO. n=32 from 3 biological replicates. […]

For series [2], the system named is cardiomyocytes (let-7 OE CMs vs. EV control). Description: SEAHORSE XF96 metabolic flux assay (MITOSTRESS, palmitate, glucose stress). In kind it is cell-based, human. The note with it: compared to EV control; for OCR changes after FCCP treatment (maximal respiration capacity): after oligomycin. An excerpt: To understand the molecular signaling components of maturation program that are modulated in let-7g OE CMs, the inventors probed the differential expression data further using density plots for each of the 12 pathways previously identified (FIG. 4F). […] The inverse relationship between FA metabolism and PI3/AKT/insulin signaling in let-7g OE CMs was similar to that observed in the 1 yr old CMs and consistent with the metabolic switch seen in maturing CMs in in vivo studies. The inventors validated by qPCR in the let-7 OE CMs the down-regulation of candidate let-7 targets in the insulin pathway and up-regulation of candidates of FA metabolism (FIG. 5B). To test the functional relevance for these gene expression changes, the inventors carried out metabolic analysis of let-7 OE CMs vs. EV control using the SEA HORSE™ metabolic flux assay. First, mitochondrial maximal respiration capacity was analyzed by measuring the oxygen consumption rate (OCR), a metabolic parameter representing the mitochondrial respiration levels. To record the maximum activity of the electron transport chain uncoupled from ATP synthesis, mitochondrial ATP synthase was inhibited with oligomycin, then maximum mitochondrial respiration was measured after addition of the proton gradient discharger, carbonyl cyanide 4-(trifluoromethoxy)phenylhydrazone (FCCP). […] Increased mitochondrial respiration can be due to increased mitochondrial copy number or increased mitochondrial activity, for example due to higher efficiency of glucose or fatty acid usage as energy substrates. […] To investigate whether the let-7 OE CMs also utilize glucose more efficiently, the extracellular acidification rate (ECAR) was determined. […] These experiments clearly indicate that let-7 OE specifically increases the efficiency of palmitate usage, which is an important sign of maturation.
The SEAHORSE™ XF96 extracellular flux analyzer was used to assess mitochondrial function. The plates were pre-treated with 0.1% Gelatin. At around 20 days after differentiation, the cardiomyocytes (both empty vector control and let-7 OE) were seeded onto the plates with a density of 30,000 cells per XF96 well (2,500/mm^2) to ensure about 90% surface coverage at the time of experiment. The SEAHORSE™ assays were carried out 3 days after the seeding onto the XF96 well plate. […] The OCR values were further normalized to the number of cells present in each well, quantified by the Hoechst staining (Hoechst 33342; SIGMA-ALDRICH™) as measured using fluorescence at 355 nm excitation and 460 nm emission. […] Cellular capacity to utilize Palmitate as an energy source was calculated as the OCR reduction after ETO addition. […]

B1: let-7i: human let-7 family miRNA, SEQ ID NO: 10, overexpressed from pLKO lentiviral pri-miR-let-7i construct (nucleic acid, listed as Homo sapiens)
chain: CUGGCUGAGGUAGUAGUUUGUGCUGUUGGUCGGGUUGUGACAUUGCCCGCUGUGGAGAUAACUGCGCAAGCUACUGCCUUGCUA
Regarding B1, in series [1], the “mitochondrial genome copy number” value was “without affecting”. In series [2], the “OCR changes after FCCP treatment (maximal respiration capacity)” value is on record as “significantly greater” and the “OCR increase in response to palmitate (fatty acid stress test)” value is reported as “greater”.

B2: let-7g: human let-7 family miRNA, SEQ ID NO: 9, overexpressed from pLKO lentiviral pri-miR-let-7g construct (nucleic acid, listed as Homo sapiens)
chain: AGGCUGAGGUAGUAGUUUGUACAGUUUGAGGGUCUAUGAUACCACCCGGUACAGGAGAUAACUGUACAGGCCACUGCCUUGCCA
As to B2, in series [1], the “mitochondrial genome copy number” value was “without affecting”. In series [2], the “OCR changes after FCCP treatment (maximal respiration capacity)” value is recorded as “significantly greater” and the “OCR increase in response to palmitate (fatty acid stress test)” value is recorded as “greater”.
